Test results reported in patent US20180163180A1, “METHOD OF ENHANCING SOMATIC CELL REPROGRAMMING WITH THE ACETYLLYSINE READER BRD3R” (THE UAB RESEARCH FOUNDATION, INC ., priority 2015, published 2018).

Key:
[1] = test system: reprogramming cells; assay: Senescence analysis (SA-β-galactosidase staining) of reprogramming cells; type: cell-based, human; settings: early stages of reprogramming (day 5)
Excerpt: • Senescence analysis: Prepare reprogramming cells as stated in the reprogramming section. At day 5 of reprogramming, stain cells for endogenous p-galactosidase using the Cell Senescence Kit (Cell Signaling Technology, #9860s) per manufacturer's instruction. Count the β-galactosidase^+ cells in 10 randomly selected fields in each treated groups. The total cells were counted based on DAPI staining.

[2] = test system: BJ cells; assay: Quantification of ESC-like (high-quality PSC morphology) colonies in reprogramming; type: cell-based, human; settings: BRD3R reprogramming vs control reprogramming
Excerpt: When combined with the 3F combination (OCT4, SOX2 and KLF4), BRD3R gave rise to abundant TRA-1-60^+ clusters as early as day 6, whereas such clusters were infrequent events before day 10 in the control reprogramming (3F alone and 3F-GFP) (FIGS. 8A and 8E). On day 10, TRA-1-60^+ cells in BRD3R dishes developed into colonies while controls contained only small clusters of TRA-1-60^+ cells (FIG. 8E). The number of high-quality PSC colonies was also compared (well-defined colony border, homogeneous iPSCs within each reprogramming colony, smooth colony surface, and typical morphology of pluripotent cells (small cells, large nucleus, and close cell contact)), BRD3R reprogramming gave rise to at least 57× more colonies with PSC morphology than controls (FIGS. 9A and 9B). In addition, the iPSC colonies generally were larger in BRD3R dishes than in the control dishes (FIG. 1E, and FIGS. 8C, 8E, 9B, and 12C).
• Cell culture and reprogramming: Human fibroblast cells (BJ ATCC CRL-2522®) were cultured in fibroblast medium: DMEM, 10% heat-inactivated FBS, 0.1 mM 2-mercaptoethanol, 100 U/ml penicillin, 100 μg/ml streptomycin, 0.1 mM MEM NEAA and 4 ng/ml human bFGF. For reprogramming, seed BJ cells into 24-well plate at 2×10^4 cells/well. […]

[3] = target: T1, tetra-acetylated H4 (H4K5/8/12/16Ac) (Homo sapiens, UniProt P62805); assay: Histone peptide pull-down assay; type: binding; settings: lysates of human fibroblasts overexpressing BRD3R or BRD3; western with BRD3 antibody
T1 construct: Histone tails used for peptide pull-down experiments; Peg-biotin (chemical label); incubated with lysate of human BJ fibroblasts transduced with BRD3R or BRD3 virus
Description: (§1) • Histone peptide pull-down assay: H3 or H4 histone tails with 8 different acetylation modifications were evaluated for binding with BRD3R and BRD3. One unmodified tail for each histone was used for negative control.
(§2) Human BJ fibroblasts were transduced with BRD3 or BRD3R viruses. Three days post-transduction, cells were lysed by non-denaturing lysis buffer (20 mM HEPES pH 7.9, 150 mM NaCl, 1 mM MgCl2, 0.5% NP40, 10 mM NaF, 0.2 mM NaVO4, 10 mM β-glycerol phosphate, 5% glycerol, 1 mM DTT, 1 mM PMSF and protease inhibitors). Twenty μg of the cell lysates were incubated with 1 μg biotinylated peptide in 300 μl binding buffer (50 mM Tris pH 7.5, 150 mM NaCl, 0.1% NP-40, 1 mM PMSF and protease inhibitors) at 4° C. for overnight. The next day, 30 μl of Dynabeads M-280 Streptavidin was added into each sample (Invitrogen, 11205D). The mixture of proteins, antibodies and beads were further incubated with gentle rotation at 4° C. for 1 h. The beads were then washed with binding buffer three times. The bound proteins were resuspended in 60 μl of 2× SDS sample buffer. The pull-down proteins were analyzed by western using antibody of BRD3 (Proteintech, 11859-1-AP). Two micrograms of cell lysates were loaded as input control. For semi-quantification, band density was normalized to the corresponding inputs.

[4] = target: T2, H3K9Ac (Homo sapiens, UniProt P68431); assay: Histone peptide pull-down assay; type: binding; settings: lysates of human fibroblasts overexpressing the protein
T2 construct: Histone tails used for peptide pull-down experiments; expressed in transfected cells; host or cells: human BJ fibroblasts transduced with BRD3R lentivirus (lysate)
Description: as §1, §2

[5] = target: T3, H3K14Ac (Homo sapiens, UniProt P68431); assay: Histone peptide pull-down assay; type: binding; settings: lysates of human fibroblasts overexpressing the protein
T3 construct: Histone tails used for peptide pull-down experiments; expressed in transfected cells; host or cells: human BJ fibroblasts transduced with BRD3R lentivirus (lysate)
Description: as §1, §2

[6] = target: T4, H4K5Ac (Homo sapiens, UniProt P62805); assay: Histone peptide pull-down assay; type: binding; settings: lysates of human fibroblasts overexpressing the protein
T4 construct: Histone tails used for peptide pull-down experiments; Peg-biotin (chemical label); expressed in transfected cells; host or cells: human BJ fibroblasts transduced with BRD3R lentivirus (lysate)
Description: as §1, §2

[7] = target: T5, biacetylated H3 (H3K9/14Ac) (Homo sapiens, UniProt P68431); assay: Histone peptide pull-down assay; type: binding; settings: lysates of human fibroblasts overexpressing the protein
T5 construct: Histone tails used for peptide pull-down experiments; expressed in transfected cells; host or cells: human BJ fibroblasts transduced with BRD3R lentivirus (lysate)
Description: as §1, §2

[8] = test system: reprogramming cells; assay: Cell cycle analysis by flow cytometry of reprogramming cells; type: cell-based, human; settings: day 6 of reprogramming, compared to controls
Description: • Cell Cycle Analysis: Harvest cells by trypsin solution. Fix cell with 70% cold ethanol overnight at 4° C. The next day, wash cells with PBS. Treat cells with 0.2 mg/ml RNase A in PBS containing 0.1% Triton X-100 at 37° C. for 1 h. Add PI at a final concentration of 10 μg/ml. Keep the cells in dark and at 4° C. until analysis. Analyze on BD LSRFortessa. Percentage of cells at each cell cycle phases was determined with Watson (pragmatic) (Watson et al., (1987) Cytometry 8: 1-8) and Dean-Jett-Fox (Fox M. H. (1980) Cytometry 1: 71-77) models on FlowJow.

BRD3R: BRD3 with Reprogramming activity; 556 aa isoform of human BRD3 (AAH32124, SEQ ID NO: 47), encoded by cDNA L61
cell senescence (SA-β-galactosidase staining) [1]: Reduced cell senescence | more colonies with PSC morphology than controls [2]: at least 57 × | binding to H4K5/8/12/16Ac peptide [3]: bound strongly | binding to H3K9Ac peptide [4]: bound | binding to H3K14Ac peptide [5]: bound | binding to H4K5Ac peptide [6]: weakly | binding to H3K9/14Ac peptide [7]: bound very weakly | number of cells in G1 [8]: statistically reduced | population of cells in G2/M phases [8]: statistically increased
